Data on two molecules can be found in patent publication US20200354468A1 (US Dept. of Health and Human Services, published 2020).

For experiment [1], the target named is T1, BSA-conjugated CD133 immunogenic polypeptide B (Homo sapiens, lysine added as C-terminal residue for conjugation; conjugated to BSA).
T1 construct: The peptide stood in the assays as a BSA conjugate; the text gives 615-643; also called B-BSA; Pep B
T1 peptide: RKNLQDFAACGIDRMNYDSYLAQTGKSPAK
In words: direct ELISA, BSA-conjugated peptide coated. For orientation: In an ELISA, binding on a coated surface is turned into a signal by an enzyme label.

The target in experiment [2] is T2, Recombinant CD133 domain B polypeptide (Homo sapiens, UniProt O43490 515-745).
T2 construct: also called CD133B; recombinant CD133 Extracellular Domain B
T2 sequence: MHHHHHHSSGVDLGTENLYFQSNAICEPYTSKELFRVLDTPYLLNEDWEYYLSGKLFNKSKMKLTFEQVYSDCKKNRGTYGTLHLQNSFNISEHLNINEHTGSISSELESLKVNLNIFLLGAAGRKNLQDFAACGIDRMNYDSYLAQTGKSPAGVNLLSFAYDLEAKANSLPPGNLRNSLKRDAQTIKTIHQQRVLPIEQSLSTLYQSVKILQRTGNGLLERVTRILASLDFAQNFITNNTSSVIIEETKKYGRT
In words: direct ELISA, recombinant domain coated. The procedure: (§1) The cDNAs of IgG heavy and light chains were amplified by polymerase chain reaction (PCR) and cloned into a mammalian expression vector. The recombinant monoclonal antibody was then transiently expressed using a HEK293 cell system. The expressed recombinant antibodies were then tested by ELISA against CD133 immunogenic polypeptides A and B and recombinant domain A and B polypeptides. […] The testing confirmed the specificity of the mAbs. The cDNA was sequenced.

Experiment [3] concerns the target T2, Recombinant CD133 domain B polypeptide. Briefly: subclone screening by ELISA and Western blot.
Experiment [4] deals with T3, BSA-conjugated CD133 immunogenic polypeptide A (Homo sapiens, N-terminal lysine used for conjugation; conjugated to BSA).
T3 construct: The peptide stood in the assays as a BSA conjugate; also called A-BSA; PepA
T3 peptide: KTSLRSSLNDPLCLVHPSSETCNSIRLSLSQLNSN
In words: direct ELISA, BSA-conjugated peptide coated.

Experiment [5] deals with T4, Recombinant CD133 domain A polypeptide (Homo sapiens, UniProt O43490 180-400, limits assumed).
T4 construct: also called CD133A; recombinant CD133 Extracellular Domain A
T4 sequence: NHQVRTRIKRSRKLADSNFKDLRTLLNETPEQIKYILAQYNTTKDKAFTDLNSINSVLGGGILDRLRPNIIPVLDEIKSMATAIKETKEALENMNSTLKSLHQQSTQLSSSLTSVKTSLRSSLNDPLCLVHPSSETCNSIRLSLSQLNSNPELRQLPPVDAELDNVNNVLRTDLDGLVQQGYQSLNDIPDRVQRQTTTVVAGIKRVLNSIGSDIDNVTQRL
In words: direct ELISA, recombinant domain coated. The protocol: as §1

B1: anti-CD133 monoclonal antibody mAb 47-10 (antibody, V domains shown)
VH: QSVEESGGRLVTPGTPLTLTCTVSGIDLNNYNMQWVRQAPGKGLEWIGATFGSDSIYYATWAKGRFTISKTSTTVDLKMTSLTTEDTATYFCARGGLWGPGTLVTVSS
VL: AQVLTQTASPVSAAVGATVTINCQSSQSVYNNNYLAWFQQKPGQPPKLLIYRASTLASGVSSRFKGSGSGTQFALTISGVQCDDAGTYYCQGEFSCDSADCAAFGGGTEVVVKG
notes: Rabbit IgG from a hybridoma, cloned and made recombinantly in HEK293 cells; also called clone 47-10; mAb subclone 47-10
With B1, the binding result in experiment [1] and in experiment [2] was “no binding” throughout.

B2: anti-CD133 monoclonal antibody mAb 133-3 (antibody, V domains shown)
VH: QSVEESGGRLVTPGTPLTLTCTVSGFSLSRYAMSWVRQAPGKGLDWIGYIDIGGGAYYASWAKGRFTISETSTTVYLKVNSPTTEDTATYFCARGVANSDIWGPGTLVTVSS
VL: ALVMTQTPSPVSAAVGGTVTINCQSSQSVFNNKWLSWYQQKPGQPPKLLIYFVSTLASGVPSRFKGSGSGTQFTLTISGVQCDDAATYYCQGSDYSSGWYSPFGGGTEVVVEG
notes: Rabbit IgG from a hybridoma, cloned and made recombinantly in HEK293 cells
For the molecule B2, the binding result was “binds” in experiment [3], “no binding” in experiment [4], “binds” in experiment [1] and “no binding” in experiment [5].
